Consider 138 substances from the supplement of paper PMC12042874.

± gives the uncertainty stated by the source.

A short description of the data set: amyloid nucleation score (Sup35N fusion, yeast selection) (log enrichment); library NNK2; higher = more nucleation; inactive = no reads after selection. The gist of the method: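 Using DiMSum, nucleation scores were taken as the log enrichment of output over input reads, centred on the mode score of non-aggregating sequences. The input and output reads came from Illumina sequencing of plasmid inserts, with sequences under 100 input reads excluded. The yeast were psi-negative, expressed Sup35N fused to peptides of 20 random codons, were induced with 100 μM copper sulfate for 24 hours, and were grown 7 days at 30°C on medium lacking adenine and uracil.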
GKNMRYFRQTGCH: the amyloid nucleation score was -0.39 ± 0.21.
On to DIPPKDLLGVFIDDEIREYC, for which the amyloid nucleation score is -0.436 ± 0.76.
The value for FSPKKFK was -0.532 ± 1; that for TMYYVTGGV was 2.44 ± 0.056.
The figure for FAIMHFY is -0.711 ± 1.1; for LTCVSAR it is 1.2 ± 0.16.
The substance QKEENSWPGLIRCNLGVREG gave an amyloid nucleation score of 0.092 ± 0.22.
The figure for MTVASCSTGCHD is 0.084 ± 0.54; for FYGPFV it is 0.729 ± 0.23; for ANLWNEGFPLNGLHDNGIDQ it is -0.379 ± 0.49.
In the case of DFFRRFI, the amyloid nucleation score was -0.742 ± 0.48.
The figure for YNWGNASSSGVKPEPGGQPT is 0.696 ± 0.27; for IGHLPMMVLT it is 1.42 ± 0.36.
For KPLNVHELIVSYEYYLLFCQ, the amyloid nucleation score entry is “inactive”.
The figure for GYVFYNFFYSAQSRLSSLSN is 0.52 ± 0.15; for FSFKPRTRSAGG it is -0.11 ± 0.5.
The figure for GFHLQMEEVASYFLEIRPFC is 0.02 ± 0.79; for CYLLN it is -0.805 ± 0.44.
In turn, MKNFNVYSTYWLCMGEYGCL gave an amyloid nucleation score of 6.34 ± 0.078.
NDHVVVAHTFYLCDRNVDEM showed an amyloid nucleation score of 0.483 ± 0.4.
Consider YKVCRVFLVIYIHDFEWVVD, for which the amyloid nucleation score result is “inactive”.
With RMSEYFDGLHRWFSGCWCAL, the amyloid nucleation score came out at 0.256 ± 0.65.
The value for DAVDFGISVSIHRSVREGWR was 4.89 ± 0.11; that for MSGFTFKTLGGISHYDFQLD was “inactive”.
The value for KGIQYSTLVTRRFWMW was 3.68 ± 0.088; that for ATVYMLHALVSDGCQLGD was 0.399 ± 0.31; that for LGGRYDVVMLIYLQSALFMG was 0.285 ± 1.
Regarding FLMVVVGNVLPLSKCYALWY, the amyloid nucleation score was -0.007 ± 0.55.
The figure for HKHSISKCAKEALAALLLFV is -0.319 ± 0.76; for SVAVPWGFTSYSCVRLGGFN it is 3.06 ± 0.14.
For DMGNDLRDRVRGFSALMLWR, the amyloid nucleation score result was “inactive”.
The figure for MSMLPCGSVYFNTRNAYLWL is 6.678 ± 0.065.
The figure for SIFMDRCDWPSCSFGRIHEV is -0.521 ± 0.35.
The figure for MFCIWRE is 0.907 ± 0.2; for YIQLGWGLSKTWSHLTGELA it is 2.34 ± 0.14.
The substance LAGSVTIPLPTCYSIMTSRP came in with an amyloid nucleation score of 0.233 ± 0.77.
Turning to SWLVDPTLGTRLSFTVMYRC, the amyloid nucleation score was 0.053 ± 1.1.
The value for KSIGTAGFDN was -0.846 ± 0.42.
NRKRLWHYFLGTKDISIERV: the amyloid nucleation score entry was “inactive”.
The substance YMFMIRSGFV yielded an amyloid nucleation score of -0.376 ± 0.37.
The value for PIKVDEVCGCRRRWFGDWDS was -0.146 ± 1; that for SKRRSSLQPS was -0.151 ± 0.31; that for ILTGILSLVAYASSPGAPCG was 2.45 ± 0.22.
Regarding YFVEYSW, the amyloid nucleation score is 0.542 ± 0.47.
Regarding VLKQLLFFS, the amyloid nucleation score came out at 4.357 ± 0.039.
For RRKSGLEFLLISNYIILGFR, the amyloid nucleation score entry is “inactive”.
The figure for YSRKYSSAKVSMGDVCHNYM is -1.19 ± 0.76; for VPYGRAGFVTTYAVCCYNCK it is -0.47 ± 1.1.
The entry for VNLITGIMYI is “inactive”; for MNIDLHTHPSRSKMLCTTAN it is 0.914 ± 0.55.
FEGTHCVSSIANVMCVRWCL registered an amyloid nucleation score of 6.43 ± 0.069.
The value for SDDWIDYRCNPGRGSKEAMA was 4.6 ± 0.098.
As for GEQDDVPRFGYTKACEFLFA, the amyloid nucleation score entry is “inactive”.
Consider TYIFSHTAGYNFG, for which the amyloid nucleation score result was “inactive”.
The entry for NNYAADGRCNYWGSISLKVR is “inactive”; for VDTHSILASCLRVTKGVTDK it is 0.138 ± 1.1.
Turning to GTSLYGFSPTAHVRVSHRGE, the amyloid nucleation score was found to be 0.957 ± 0.47.
RGCSESWLSW came in with an amyloid nucleation score of 0.079 ± 0.34.
Substance LYLVVYIVASGSYACVRRST came in with an amyloid nucleation score of 0.546 ± 0.4.
The figure for KWIRFWVKDAFRVGRCHIWG is 0.038 ± 0.5.
The entry for IWESSIYLNEETNDCLEKL is “inactive”; for NEHMIHIKSDLRYSAESKPY it is 0.503 ± 0.18.
The value for MPHPLLLSFEENLIDCLYDH was -0.693 ± 0.64; that for AVVLLLRTAGVVIGHLVLRH was -0.016 ± 0.29; that for DKVFDLTQMGFL was “inactive”.
As to RFFHGYFCGIRCRCQAVCQL, the amyloid nucleation score result was “inactive”.
The figure for RRVPEKGLLGLYSGGLIAEV is -0.299 ± 0.74.
Substance CISMDLIVLNSFMGKPLPPP registered an amyloid nucleation score of 5.39 ± 0.057.
The value for GVVTFV was 0.157 ± 0.76.
NFYMSKVVSFKNGCM displayed an amyloid nucleation score of 3.3 ± 0.057.
For the substance ISRQDRVQWWSYSSTRLA, the amyloid nucleation score was 4.94 ± 0.077.
For the substance LWKLYLTVSRNLAVGISGGL, the amyloid nucleation score entry was “inactive”.
The value for GYWTGELH was “inactive”.
Substance YIHVYVLMLGLNRQF showed an amyloid nucleation score of 4.74 ± 0.071.
In turn, CAGGFGLKPAFVYEFWCKSI registered an amyloid nucleation score of -1.17 ± 1.
The substance LLMFAMYIQIRLLSTATYIV displayed an amyloid nucleation score of -0.564 ± 0.79.
The figure for HLENGINIWDKLY is -0.363 ± 1.1.
The figure for CNSHM is 2.9 ± 0.072; for WLRVTRLEIWQGKFSTNELT it is -0.755 ± 1.1; for WYRLAFQLELPLFHRSYRRW it is 0.288 ± 0.37.
The value for MLAWWPFRKWRVLIRGSRGF was 1.5 ± 0.35.
Substance AASWHPAYCIYGPGGRDKVG yielded an amyloid nucleation score of 2.49 ± 0.12.
With PMFCFCPLCLWHKDCISINS, the amyloid nucleation score amounted to 8.227 ± 0.078.
The value for LLSVVKCACEMRTTKAVIGA was 2.05 ± 0.35; that for YARANYYALLWPRLTFPMIL was -1.41 ± 0.78; that for LSAGPALHSYLSGNVFSIEL was 2.69 ± 0.069.
The entry for VNNNLLNASLAMVSM is “inactive”.
On to VANDLQPWLRAVHSCFWYSS, for which the amyloid nucleation score worked out at 0.896 ± 0.17.
The value for WNFKGRLLRMQLTRAHVNHT was “inactive”; that for FMYGTDSFGL was -1.08 ± 0.78.
The substance VTGYGSLYYGVKTRG registered an amyloid nucleation score of -0.295 ± 0.55.
The figure for KLACVEGTKWAASGIAPNV is 0.946 ± 0.2.
The figure for SVDNGYVFSLVDPREYRFHL is -0.813 ± 0.76; for MLCVIHE it is 0.675 ± 0.25.
The figure for VQICLGNPNWGNPANRSFVV is 1.95 ± 0.2; for YRFMTLVQHSYRCICLRLNA it is -0.183 ± 0.33.
CTIIFNLLLAD registered an amyloid nucleation score of 7.396 ± 0.055.
The value for SYPAKDRNLYDCYLCPVSYL was -1.16 ± 0.61; that for TFFYCGPRKLFYKI was -0.387 ± 1.1; that for YPVIPGISRLLNTQRIVFLG was -0.226 ± 0.21.
The figure for YPDIYGFEKRIDSPSNLGML is 0.433 ± 0.6; for RVSQDSVAGRRSLFMKFVGG it is 6.022 ± 0.042; for TPDLSLLFIIRRCIFSGTPY it is “inactive”.
Take NMMWCVKHYKSVRSLLGCLV: the amyloid nucleation score is -0.891 ± 0.54.
Turning to DFYACTWKDSCCGHEGRSAC, the amyloid nucleation score came out at 0.634 ± 0.43.
On to ARPVDMHTQTYALL, for which the amyloid nucleation score was -0.284 ± 1.1.
In turn, YNSLVRMRTRYIGR gave an amyloid nucleation score of 0.025 ± 0.46.
Take LGNIHIWTSV: the amyloid nucleation score was -1.53 ± 0.49.
The figure for EYHSSWVISAPVYLQSATAW is 5.23 ± 0.085; for YLSLYGNGC it is -0.627 ± 1.1; for DSSVQRRLS it is 0.121 ± 0.56.
The figure for LPWLWQLTFPFWA is 0.582 ± 0.37; for LSNEAWFGQGMLDGWGGGEG it is 0.514 ± 0.56.
The entry for NTWDMLYGIWFSSLLQALLN is “inactive”; for INNDTVMVVHRRIHLLYYLM it is “inactive”; for FFYEFFSHICLGQERGWPRV it is “inactive”.
Take NFFSTISQVMRYILFHSKVD: the amyloid nucleation score was -1.54 ± 0.54.
The figure for YFDTYLMTSRGCSIFMAQFR is 1.67 ± 0.28; for PTSDMWSCNNL it is 0.961 ± 0.81; for LSARFHHAKFLNYSDSRVGQ it is “inactive”.
The value for FSNVLRFSIA was -1.27 ± 0.45; that for AHHRCHWYECVMMPRHGPRP was 1.26 ± 0.33; that for NLKRVKRMIPYYTTQ was -0.343 ± 0.33.
The figure for IWRSRKLHDMYTVVRGVASD is 0.182 ± 0.56; for DIIFVDALMSVTSVQQNLH it is -0.388 ± 0.55; for VGIRCLRFFNMIVLEG it is -0.059 ± 0.55.
As for PIDFVLCSNNSSSWPVHKQN, the amyloid nucleation score turned out to be 2.36 ± 0.11.
In the case of WFACSLVAYRVLSSGTKAVM, the amyloid nucleation score came out at 0.204 ± 0.34.
The figure for TVCKPIRWLNNEFCDYVSNT is -0.644 ± 0.31.
The figure for CTFPALSLPGPVSTQQSSGQ is 3.47 ± 0.06; for CRFRGLRYNRWDQNDVFAGV it is 0.349 ± 0.44.
Turning to LITFLCFYHLKHYGLHTVGW, the amyloid nucleation score is -1.03 ± 0.36.
The figure for LNRVQLNLRGQRITLSHYQI is -0.536 ± 1.1.
AWFVYYVYRMFLNVSTSYWK had an amyloid nucleation score of 0.074 ± 0.74.
The figure for NYWGVARKFEFSDECLFLDG is 0.596 ± 0.54; for MFLVSFRCVSYSAWYLTYMQ it is -0.338 ± 0.63; for CKWEFKWPYWGDYLVFMCK it is -0.679 ± 1.1.
The figure for FHVTVRFRSYCIFDPRGCVI is 1.81 ± 0.21.
